Results: paper PMC3539201 (Journal of cell science, 2008)
Each block holds one binder with its values, some of them ahead of it.

Biological target: T1, torsinA (endogenous, 293T cells) (human (endogenous in 293T), UniProt O14656 21-332)
T1 sequence (looked up): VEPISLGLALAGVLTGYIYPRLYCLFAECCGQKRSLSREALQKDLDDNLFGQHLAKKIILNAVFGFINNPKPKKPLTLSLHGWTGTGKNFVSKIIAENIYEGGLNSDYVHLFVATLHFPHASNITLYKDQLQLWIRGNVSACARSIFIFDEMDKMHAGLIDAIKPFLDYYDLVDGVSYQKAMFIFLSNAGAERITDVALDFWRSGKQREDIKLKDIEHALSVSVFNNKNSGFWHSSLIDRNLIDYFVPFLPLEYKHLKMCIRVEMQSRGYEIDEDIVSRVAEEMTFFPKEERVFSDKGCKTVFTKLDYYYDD
Assay: co-IP

- percentage immunoprecipitated from lysates by torsinA antibodies: 12%
B1: GFP-KASH-2 (domain or fragment)
chain: not shown

- percentage immunoprecipitated from lysates by torsinA antibodies: 21%
B2: GFP-KASH-1 (domain or fragment)
chain: not shown

- percentage immunoprecipitated from lysates by torsinA antibodies: 11%
B3: GFP-KASH-3α (domain or fragment, mouse, UniProt Q4FZC9 917-975, looked up)
chain: CSLLQKACRVALPLQLLLLLFLLLLFLLPAGEEERSCALANNFARSFALMLRYNGPPPT
